Experimental data taken from paper PMC6778029 (Molecular cell, 2019).
Changes are numbered by the printed parent chain.

B1: recombinant hnRNPG RGG1mut (natural protein, human, UniProt P38159 1-391, looked up)
chain: MVEADRPGKLFIGGLNTETNEKALEAVFGKYGRIVEVLLMKDRETNKSRGFAFVTFESPADAKDAARDMNGKSLDGKAIKVEQATKPSFESGRRGPPPPPRSRGPPRGLAGGAGGSGGTAGPPSAGGHMDDGGYSMNFNMSSSRGPLPVKRGPPPRSGGPPPKRSAPSGPVRSSSGMGGRAPVSRGRDSYGGPPRREPLPSRRDVYLSPRDDGYSTKDSYSSRDYPSSRDTRDYAPPPRDYTYRDYGHSSSRDDYPSRGYSDRDGYGRDRDYSDHPSGGSYRDSYESYGNSRSAPPTRGPPPSYGGSSRYDDYSSSRDGYGGSRDSYSSSRSDLYSSGRDRVGRQERGLPPSMERGYPPPRDSYSSSSRGAPRGGGRGGSRSDRGGGRSRY
B2: recombinant hnRNPG RGG2mut (natural protein, human, UniProt P38159 1-391, looked up)
chain: B1 chain with A110R, A113R, A120R, A125R, R369A, R373A, R377A
B3: recombinant hnRNPG RRMmut (natural protein, human, UniProt P38159 1-391, looked up)
chain: B1 chain with K9A, F11A, R49A, F51A, F53A, A110R, A113R, A120R, A125R

Molecular target: the molecule itself
Assay: dynamic light scattering

Protein | binding result
B1 | binds
B2 | binds
B3 | binds
